Experimental data reported in patent US20100150860A1 (LUNAN PHARMACEUTICAL GROUP, published 2010).

B1: recombinant chimeric protein of neutrophil inhibitory factor and hirugen (TNHH), Met-NIF-GGGGG-FPRPGSGG-Hirugen (other)
chain: MNEHNLRCPQNGTEMPGFNDSIRLQFLAMHNGYRSKLALGHISITEESESDDDDDFGFLPDFAPRASKMRYLEYDCEAEKSAYMSARNCSDSSSPPEGYDENKYIFENSNNISEAALKAMISWAKEAFNLNKTKEGEGVLYRSNHDISNFANLAWDAREKFGCAVVNCPLGEIDDETNHDGETYATTIHVVCHYPKINKTEGQPIYKVGTPCDDCSEYTKKADNTTSADPVCIPDDGVCFIGSKADYDSKEFYRFRELGGGGGFPRPGSGGNGDFEEIPEEYL
B2: TNHH-G15/n3, NIF-(Gly)15-FPRP-(GSGG)3-hirugen (other)
chain: MNEHNLRCPQNGTEMPGFNDSIRLQFLAMHNGYRSKLALGHISITEESESDDDDDFGFLPDFAPRASKMRYLEYDCEAEKSAYMSARNCSDSSSPPEGYDENKYIFENSNNISEAALKAMISWAKEAFNLNKTKEGEGVLYRSNHDISNFANLAWDAREKFGCAVVNCPLGEIDDETNHDGETYATTIHVVCHYPKINKTEGQPIYKVGTPCDDCSEYTKKADNTTSADPVCIPDDGVCFIGSKADYDSKEFYRFRELGGGGGGGGGGGGGGGFPRPGSGGGSGGGSGGNGDFEEIPEEYL
B3: NIF-hirudin hybrid (NHH), NIF-(Gly)5-hirugen (other)
chain: NEHNLRCPQNGTEMPGFNDSIRLQFLAMHNGYRSKLALGHISITEESESDDDDDFGFLPDFAPRASKMRYLEYDCEAEKSAYMSARNCSDSSSPPEGYDENKYIFENSNNISEAALKAMISWAKEAFNLNKTKEGEGVLYRSNHDISNFANLAWDAREKFGCAVVNCPLGEIDDETNHDGETYATTIHVVCHYPKINKTEGQPIYKVGTPCDDCSEYTKKADNTTSADPVCIPDDGVCFIGSKADYDSKEFYRFRELGGGGGNGDFEEIPEEYL

Each binder was assayed against thrombin (of the antithrombin activity assay, species not stated) (assay: cell-based or functional assay).
With B1 the “antithrombin activity (ATU/mg)” value was 1200 ATU/mg. With B2 the “antithrombin activity (ATU/mg)” value was 1200 ATU/mg. With NGDFEEIPEEYL (not fully specified) [hirugen (printed 'Hirogen')] the “antithrombin activity (ATU/mg)” value was 1000 ATU/mg. In the case of B3, the “antithrombin activity (ATU/mg)” value is reported as 800 ATU/mg.
